The target in data set [1] is T1, TtOGT (Thermobaculum terrenum, UniProt D1CIY5, K341M).
T1 construct: gene Tter_2822; full-length, N-terminal GST fusion from E. coli BL21, GST cut off with PreScission protease (pGEX-6P-1)
The data set is described as follows: X-ray crystal structure of complex, […] A. Type of data set: binding. To be noted: co-crystallized with 10 mM UDP; active site; mutant stated in the crystallization methods; PDB code assigned by reader.

For data set [2], the target named is T2, TtOGA (Thermobaculum terrenum, UniProt D1CDN2).
T2 construct: gene Tter_0116; full-length, N-terminal GST fusion from E. coli BL21, GST cut off with PreScission protease (pGEX-6P-1)
Description: fluorogenic 4MU-GlcNAc hydrolysis; Ki from IC50 by Cheng-Prusoff. It is filed as biochemical. The conditions noted are these: 4MU-GlcNAc 90 uM (= Km); 4 pM enzyme; 1 min preincubation.

Substrate in data set [3]: CC(=O)N[C@H]1[C@H](Oc2ccc3c(C)cc(=O)oc3c2)O[C@H](CO)[C@@H](O)[C@@H]1O
The data set is described as follows: fluorescence of released 4-methylumbelliferone, Michaelis-Menten fit. It is filed as biochemical, Thermobaculum terrenum. The conditions noted are these: TBS, 0.1 mg/ml BSA, 2% DMSO; 0.2 nM enzyme.

The target in data set [4] is T3, TtOGA D120N (Thermobaculum terrenum O-GlcNAcase orthologue, product of gene Tter_0116, catalytic acid mutant) (Thermobaculum terrenum strain YNP1, UniProt D1CDN2 1-474, D120N).
T3 construct: O-GlcNAcase (GH84) orthologue TtOGA of Thermobaculum terrenum YNP1, gene Tter_0116, full length, cloned into pGEX-6P-1; GST removed with PreScission protease; also called D120N mutant of TtOGA; Ttoga product; source: E. coli BL21, purified (GSH-Sepharose, PreScission cleavage, Superdex 75); not shown: GST, N-terminal, cleaved
T3 sequence (looked up): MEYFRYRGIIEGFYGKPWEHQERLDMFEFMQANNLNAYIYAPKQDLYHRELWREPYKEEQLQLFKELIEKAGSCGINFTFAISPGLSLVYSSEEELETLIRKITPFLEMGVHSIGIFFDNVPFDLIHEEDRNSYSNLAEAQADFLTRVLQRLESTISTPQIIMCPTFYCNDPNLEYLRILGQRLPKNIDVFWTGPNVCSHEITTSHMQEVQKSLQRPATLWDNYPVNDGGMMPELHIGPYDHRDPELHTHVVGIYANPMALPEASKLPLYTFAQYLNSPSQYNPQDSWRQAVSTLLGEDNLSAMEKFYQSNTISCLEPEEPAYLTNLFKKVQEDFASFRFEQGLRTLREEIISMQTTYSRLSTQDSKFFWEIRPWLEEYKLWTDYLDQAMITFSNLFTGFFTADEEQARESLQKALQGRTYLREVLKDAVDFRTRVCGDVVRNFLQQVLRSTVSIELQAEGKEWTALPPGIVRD
The data set is described as follows: crystal structure; co-crystallised: 40 mg/ml TtOGA D120N with 7.2 mM hTab1-O-GlcNAc peptide in 50 mM HEPES pH 7.5, 250 mM NaCl, 0.5 mM TCEP; sitting drops, 38% PEG 4000, 400 mM sodium acetate, 0.1 M Tris-HCl pH 8.5, 22 °C; 2.06 Å. To be noted: both partners purified.

Residue numbers refer to the chain shown, from its start. Where no end group is shown, it is not given here. The star is where a group is joined. βGlcNAc = CC(=O)N[C@@H]1[C@@H](O)[C@H](O)[C@@H](CO)O[C@H]1*

T1 sequence (D1CIY5 entry or part of it K341M): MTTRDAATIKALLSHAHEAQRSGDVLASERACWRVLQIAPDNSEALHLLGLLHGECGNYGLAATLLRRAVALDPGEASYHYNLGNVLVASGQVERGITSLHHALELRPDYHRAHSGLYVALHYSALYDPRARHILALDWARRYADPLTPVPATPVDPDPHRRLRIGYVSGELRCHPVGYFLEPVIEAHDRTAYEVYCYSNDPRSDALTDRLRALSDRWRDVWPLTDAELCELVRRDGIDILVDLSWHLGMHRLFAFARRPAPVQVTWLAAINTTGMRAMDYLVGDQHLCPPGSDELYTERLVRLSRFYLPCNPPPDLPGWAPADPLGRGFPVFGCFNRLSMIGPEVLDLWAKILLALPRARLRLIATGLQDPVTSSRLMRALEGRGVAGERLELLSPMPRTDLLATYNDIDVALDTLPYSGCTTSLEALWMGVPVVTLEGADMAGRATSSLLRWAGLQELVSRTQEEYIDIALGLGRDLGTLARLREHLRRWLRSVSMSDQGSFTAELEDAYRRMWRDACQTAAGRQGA
T2 sequence (D1CDN2 entry or part of it): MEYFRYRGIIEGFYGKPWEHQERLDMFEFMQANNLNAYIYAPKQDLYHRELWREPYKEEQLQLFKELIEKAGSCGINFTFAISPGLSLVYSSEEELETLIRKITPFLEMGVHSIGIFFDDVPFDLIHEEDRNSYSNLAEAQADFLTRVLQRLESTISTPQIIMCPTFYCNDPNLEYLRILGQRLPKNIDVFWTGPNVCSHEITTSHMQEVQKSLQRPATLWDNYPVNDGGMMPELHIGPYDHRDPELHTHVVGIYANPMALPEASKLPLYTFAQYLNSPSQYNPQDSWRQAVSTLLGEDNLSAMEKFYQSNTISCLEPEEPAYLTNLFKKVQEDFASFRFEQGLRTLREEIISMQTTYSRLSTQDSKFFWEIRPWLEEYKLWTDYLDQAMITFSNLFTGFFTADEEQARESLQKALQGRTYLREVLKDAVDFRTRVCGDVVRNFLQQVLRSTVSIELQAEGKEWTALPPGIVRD

Regarding `O=c1ccn([C@@H]2O[C@H](COP(=O)(O)OP(=O)(O)O)[C@@H](O)[C@H]2O)c(=O)[nH]1` [UDP], in data set [1], the “X-ray crystal structure of complex, 2.80 A” value was “TtOGT was co-crystallized with the product of O-GlcNAc transfer, UDP”.
For orientation: Ki means a dissociation constant, usually derived from enzyme kinetics or from competition with a known ligand. The low end stands for tighter binding, the high end for weaker binding. Take `C=CC=CC(=O)N[C@H]1c2nc(CCc3ccccc3)cn2[C@H](CO)[C@@H](O)[C@@H]1O` [GlcNAcstatin G]: the Ki in data set [2] stood at 18 nM.

B1: TtOGA (Thermobaculum terrenum ATCC BAA-798) (protein)
chain: T3 sequence (looked up) with N120D
notes: full-length, N-terminal GST fusion from E. coli BL21, GST cut off with PreScission protease (pGEX-6P-1)
For orientation: Km means the concentration of substrate that gives half-maximal velocity. For orientation: kcat means the number of substrate molecules converted per active site and unit of time at saturation. As for B1, in data set [3], the Michaelis-Menten constant (Km) stood at 90 µM and the turnover number (kcat) was found to be 180 s⁻¹.

B2: hTab1-O-GlcNAc peptide (392-VPYgSSAQ-398, gS is GlcNAcylated serine) (peptide)
peptide: VPYS(βGlcNAc)SAQ
notes: probably synthetic; also called hTab1 glycopeptide; glycopeptide derived from the validated hTab1 glycosylation site
With B2, in data set [4], the binding result is on record as “binds”.

Values taken from PMC4683255, “Evidence for a Functional O-Linked N-Acetylglucosamine (O-GlcNAc) System in the Thermophilic Bacterium Thermobaculum terrenum*” (The Journal of Biological Chemistry, 2015).
